Here are results for one substance from patent publication US20230022700A1.

The target of this assay is polymerized rabbit skeletal muscle actin (F-actin) (rabbit) (UniProt P68135).

With “Wolbachia wMel protein WD0830 (Wolbachia actin localizing effector 1, WalE1), purified from E. coli”, the percent of total protein in the pellet when actin was present turned out to be 24%.
